Measured values taken from patent US20240041922A1 (MONASH UNIVERSITY, published 2024).

Columns and labels:
[1] = biological target: T1, human recombinant NAMPT(1) (recombinant human visfatin, PeproTech) (human, UniProt P43490 27-491, limits assumed); test: ELISA: plate coated with 20 nM GST-hrCCR5, 0-800 nM hrNAMPT(1), biotinylated anti-NAMPT detection, BSA signal deducted, non-linear fit
T1 construct: Bought protein; also called hrNAMPT(1); hrNAMPT source 1
Experimental: Wells were blocked for 1 h at room temperature with 1% BSA in PBS containing 0.05% Tween-20 (PBS-T).

[2] = biological target: T2, recombinant mouse CCR5 (MyBioSource) (mouse, UniProt P51682 1-354, limits assumed); test: competitive ELISA: plate coated with 20 nM mrCCR5, 0-400 nM mrCCL4 with 100 nM hrNAMPT(1) as competitor, bound hrNAMPT(1) detected
T2 construct: Coated on the ELISA plate at 20 nM; also called mrCCR5; mouse recombinant CCR5
T2 sequence (P51682 whole entry): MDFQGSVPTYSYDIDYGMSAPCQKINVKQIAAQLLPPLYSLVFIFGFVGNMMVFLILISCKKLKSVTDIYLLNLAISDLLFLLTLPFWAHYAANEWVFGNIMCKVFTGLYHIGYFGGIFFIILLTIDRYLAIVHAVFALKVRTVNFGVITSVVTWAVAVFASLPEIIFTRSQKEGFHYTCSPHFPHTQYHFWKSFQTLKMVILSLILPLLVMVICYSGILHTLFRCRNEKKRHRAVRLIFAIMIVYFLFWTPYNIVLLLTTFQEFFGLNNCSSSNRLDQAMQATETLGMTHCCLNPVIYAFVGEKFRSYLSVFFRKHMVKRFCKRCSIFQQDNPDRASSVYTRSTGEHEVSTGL
Experimental: Then, wells were blocked for 1 h at room temperature with 1% BSA in PBS containing 0.05% Tween-20 (PBS-T).

[3] = biological target: CCR5 (as used in the NAMPTcif competition assay of FIG. 9b); test: competition assay: inhibition of NAMPT binding to CCR5 by NAMPTcif (FIG. 9b); format not described

T1 sequence (P43490 27-491 limits assumed): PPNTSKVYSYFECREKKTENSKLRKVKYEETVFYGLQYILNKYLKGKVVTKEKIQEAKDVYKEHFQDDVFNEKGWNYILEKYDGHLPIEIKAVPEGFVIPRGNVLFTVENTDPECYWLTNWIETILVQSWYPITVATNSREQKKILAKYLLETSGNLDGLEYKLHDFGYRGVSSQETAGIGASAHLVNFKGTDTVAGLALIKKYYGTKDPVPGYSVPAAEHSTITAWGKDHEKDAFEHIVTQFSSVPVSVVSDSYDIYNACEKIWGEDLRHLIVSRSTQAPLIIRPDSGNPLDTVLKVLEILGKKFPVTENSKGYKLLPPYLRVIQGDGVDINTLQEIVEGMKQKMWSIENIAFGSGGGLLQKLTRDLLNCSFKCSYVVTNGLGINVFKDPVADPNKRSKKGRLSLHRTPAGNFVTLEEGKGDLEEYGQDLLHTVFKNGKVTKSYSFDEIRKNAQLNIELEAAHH

B1: GST-fused recombinant human CCR5 (Abcam) (receptor)
chain: not shown
notes: Coated on the ELISA plate at 20 nM; GST is put first here only by convention; also called hrCCR5; human recombinant CCR5; not shown: GST fusion partner
Kd [1]: 172 nM

B2: recombinant murine CCL4/MIP-1beta (PeproTech) (ligand, mouse, UniProt P14097 24-92, looked up)
chain: APMGSDPPTSCCFSYTSRQLHRSFVMDYYETSSLCSKPAVVFLTKRGRQICANPSEPWVTEYMSDLELN
notes: also called mrCCL4; mouse recombinant CCL4
IC50 [2]: 34.4 nM

B3: NAMPT402-491 (recombinant C-terminal 'cytokine finger' fragment of NAMPT) (ligand)
chain: MSYVVTNGLGVNVFKDPVADPNKRSKKGRLSLHRTPAGNFVTLEEGKGDLEEYGHDLLHTVFKNGKVTKSYSFDEVRKNAQLNIEQDVAPHHHHHHH
notes: Made in E. coli BL21(DE3) from pET22b(+) and purified on HisTap; also called NAMPTcif; cif
IC50 [3]: 21.5 nM
